Test results published in US20150174265A1 (MIT, published 2015).

B1: E6N2 (Fc fusion)
chain: VSDVPRDLEVVAATPTSLLISWFDYAVTYYRITYGETGGNSPVQEFTVPGWISTATISGLKPGVDYTITVYAVTDNSRWPFRSTPISINYRTEIDKPSQ

Experiments:
[1] = system: E6N2 (anti-EGFR Fn3 clone E6 - mouse IgG2a Fc - PKR dsRBD) C121V,C135V (Homo sapiens); assay: flow
[2] = biological target: epidermal growth factor receptor (EGFR) on human cancer cell lines (human, UniProt P00533 25-1210)

Molecule | Kd [1] [nM] | binding signal [1] [fold] | Kd [2] [nM]
AllStars Negative Control siRNA, Alexa 488 labeled | 3.5 | > 100 | –
B1 | – | – | ~2.1
